Results published in US20070141716.

What was measured:
[1] = biological target: UBC13/Uev1 heterodimer, P61088
UBC13/Uev1 heterodimer, P61088, sequence (P61088 whole entry, chain 1 of 2): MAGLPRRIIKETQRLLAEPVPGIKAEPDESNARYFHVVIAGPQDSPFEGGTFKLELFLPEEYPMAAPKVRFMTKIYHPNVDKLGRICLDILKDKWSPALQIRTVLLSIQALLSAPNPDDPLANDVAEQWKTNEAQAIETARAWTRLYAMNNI
UBC13/Uev1 heterodimer, P61088, sequence (chain, as listed by the source, chain 2 of 2): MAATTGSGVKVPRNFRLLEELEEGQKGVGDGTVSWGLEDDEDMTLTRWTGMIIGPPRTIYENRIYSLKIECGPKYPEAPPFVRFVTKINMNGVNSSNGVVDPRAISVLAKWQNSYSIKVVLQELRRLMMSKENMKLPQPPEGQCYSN

UbcH5c, P61077, sequence (P61077 whole entry): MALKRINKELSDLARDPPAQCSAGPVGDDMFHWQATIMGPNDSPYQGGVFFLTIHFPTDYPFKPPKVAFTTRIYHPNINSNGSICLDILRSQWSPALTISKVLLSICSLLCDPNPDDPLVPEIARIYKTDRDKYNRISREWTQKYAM

B1: glutathione-S-transferase protein (GST)-PEM-3-like fusion protein (protein)
chain: MMAAMLSHAYGPGGCGAAAAALNGEQAALLRRKSVNTTECVPVPSSEHVAEIVGRQGCKIKALRAKTNTYIKTPVRGEEPIFVVTGRKEDVAMAKREILSAAEHFSMIRASRNKNGPALGGLSCSPNLPGQTTVQVRVPYRVVGLVVGPKGATIKRIQQQTHTYIVTPSRDKEPVFEVTGMPENVDRAREEIEMHIAMRTGNYIELNEENDFHYNGTDVSFEGGTLGSAWLSSNPVPPSRARMISNYRNDSSSSLGSGSTDSYFGSNRLADFSPTSPFSTGNFWFGDTLPSVGSEDLAVDSPAFDSLPTSAQTIWTPFEPVNPLSGFGSDPSGNMKTQRRGSQPSTPRLSPTFPESIEHPLARRVRSDPPSTGNHVGLPIYIPAFSNGTNSYSSSNGGSTSSSPPESRRKHDCVICFENEVIAALVPCGHNLFCMECANKICEKRTPSCPVCQTAVTQAIQIHS
With B1 the “ubiquitin ligase activity by TR-FRET” value (UbcH5c, P61077) was “PEM-3-like acts as an E3 ligase with both UbcH5 and UBC13/Uev1”, the “free polyubiquitin chain formation, immunoblot” value [1] was “free polyubiquitin chains were only generated in the presence of UBC13/Uev1 heterodimer and a complete ubiquitin conjugation system” and the “in vitro self-ubiquitination, anti-ubiquitin immunoblot” value [1] was “high molecular weight PEM-3-like-ubiquitin adducts were detected by anti-ubiquitin immunoblot analysis”. For the same protein, the “ubiquitin ligase activity by TR-FRET” value [1] was “PEM-3-like acts as an E3 ligase with both UbcH5 and UBC13/Uev1”.
